Source: the supplement of paper PMC6757056
± gives the standard deviation of the averaged measurements.

B1: library; a variant is named by its letters at N, in order (parent)
chain: GCUGUCACCGAGAAACUGUGAAGUAUAUCUUAAACCUGGGCACUUAAAAGAUAUAUGGAGUUAGUAGUGCAACCUGCUCGGUCUGAUGAGUCCNNNNNNGGACGAAACAGC

Tests used:
cyclic di-GMP [1] = variants of: B1; assay: FACS-Seq fitted mean relative fluorescence mCherry/BFP without ligand (log10 relative fluorescence); HEK293T; ligand: cyclic di-GMP (c-di-GMP-II aptamer); higher = higher reporter protein expression; settings: ligand present: no
How it was run: (§1)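 Sorting into 6 bins by mCherry/BFP followed 48 h of incubation with or without ligand. The cells were enriched HEK293T libraries lentivirally bearing an mCherry reporter with the ribozyme switch and an EF1α-BFP marker, and bin genomic DNA was PCR-amplified, barcoded and sequenced on MiSeq. Fluorescence is the fitted normal mean of the bin counts. Means were fitted on log10(mCherry/BFP), scaled to five spiked-in control ribozymes.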

cyclic di-GMP [2] = variants of: B1; assay: normalized RNA/DNA level without ligand (relative to sTRSVctl = 100) (log10 (% of sTRSVctl)); HEK293T; ligand: cyclic di-GMP (c-di-GMP-II aptamer); higher = less ribozyme self-cleavage, higher mRNA level; settings: reporter: mCherry (pCS4076), ligand present: no
How it was run: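 HEK293T cells received ligand, where used, 1 h before being transfected with 4 µg per 6-well well of library plasmids encoding reporter-linked ribozyme switches. After 72 h, RNA was extracted with EDTA and sequenced. RNA level was derived from RNA reads per DNA read, normalized to a spiked-in non-cleaving sequence or the top sequences, then scaled and log-transformed. Values were ×100 then log10, the top set was 25 sequences, and the minimum was 100 DNA reads.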

cyclic di-GMP [3] = variants of: B1; assay: FACS-Seq fitted mean relative fluorescence mCherry/BFP with ligand (log10 relative fluorescence); HEK293T; ligand: cyclic di-GMP (c-di-GMP-II aptamer); ligand concentration (+) FACS-Seq: 1 mM; higher = higher reporter protein expression; settings: ligand present: yes
How it was run: as §1

cyclic di-GMP [4] = variants of: B1; assay: normalized RNA/DNA level with ligand (relative to sTRSVctl = 100) (log10 (% of sTRSVctl)); HEK293T; ligand: cyclic di-GMP (c-di-GMP-II aptamer); ligand concentration (+) RNA-Seq: 1 mM; higher = less ribozyme self-cleavage, higher mRNA level; settings: reporter: mCherry (pCS4076), ligand present: yes
Description: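 Hammerhead (sTRSV) ribozyme switch libraries with a ligand aptamer grafted on stem I and a randomized N4-6 loop II, cloned into the 3' UTR of mCherry and transiently transfected into HEK293T cells; RNA-Seq 72 h post transfection with ligand added 1 h before transfection; RNA read count / plasmid DNA read count normalized to the non-cleaving sTRSVctl (x100), log10; sequences with >100 DNA reads. FACS-Seq: lentiviral library sorted into 6 bins after 48 h ligand, log-normal fit mean of mCherry/BFP scaled to controls. Printed sequences are partial switch sequences.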

Variant | FACS-Seq fitted mean (log10) (cyclic di-GMP [1]) | normalized RNA/DNA level without ligand (log10) (cyclic di-GMP [2]) | FACS-Seq fitted mean (log10) (cyclic di-GMP [3]) | normalized RNA/DNA level with ligand (log10) (cyclic di-GMP [4])
GAUUUA | -0.361 ± 0.0081 | 1.65 ± 0.018 | -0.0961 ± 0.03 | 1.81 ± 0.11
ACAGAA | -0.5622 ± 0.0028 | 1.29 ± 0.15 | -0.287 ± 0.057 | 1.47 ± 0.071
ACAGAU | -0.584 ± 0.025 | 1.39 ± 0.072 | -0.289 ± 0.018 | 1.54 ± 0.096
ACAGAG | -0.3716 ± 0.0034 | 1.44 ± 0.14 | -0.0973 ± 0.031 | 1.59 ± 0.052
GCAAUA | -0.419 ± 0.034 | 1.41 ± 0.079 | -0.0479 ± 0.074 | 1.63 ± 0.058
GCAAUC | -0.612 ± 0.083 | 1.27 ± 0.1 | -0.425 ± 0.016 | 1.52 ± 0.1
GCAAUG | -0.186 ± 0.0033 | 1.45 ± 0.14 | 0.131 ± 0.072 | 1.64 ± 0.069
GAUUGA | 0.00942 ± 0.089 | 1.5 ± 0.084 | 0.252 ± 0.042 | 1.7 ± 0.072
GAUUGG | -0.22 ± 0.02 | 1.63 ± 0.02 | 0.0818 ± 0.059 | 1.75 ± 0.093
GCAGGU | -0.184 ± 0.0055 | 1.66 ± 0.054 | 0.0315 ± 0.013 | 1.79 ± 0.15
ACAAUA | -0.5113 ± 0.0047 | 1.33 ± 0.094 | -0.23 ± 0.047 | 1.55 ± 0.14
ACAAUC | -0.873 ± 0.017 | 1.49 ± 0.043 | -0.61 ± 0.16 | 1.7 ± 0.15
ACAAUU | -0.5008 ± 0.0033 | 1.32 ± 0.093 | -0.2 ± 0.0047 | 1.52 ± 0.089
ACAAUG | -0.431 ± 0.026 | 1.39 ± 0.15 | -0.0705 ± 0.082 | 1.66 ± 0.098
CCAGGC | -1.034 ± 0.0013 | 1.636 ± 0.0075 | -0.924 ± 0.11 | 1.76 ± 0.15
UCACGU | -0.191 ± 0.32 | 1.6 ± 0.044 | 0.0669 ± 0.07 | 1.79 ± 0.074
UCACGA | -0.203 ± 0.066 | 1.632 ± 0.0055 | 0.146 ± 0.017 | 1.81 ± 0.091
GCACAU | -0.28 ± 0.043 | 1.47 ± 0.055 | -0.00874 ± 0.0028 | 1.69 ± 0.11
